Assay [1] addresses PN45545 TCR-CD3, strep-tagged, detergent-solubilized (SPR reagent) (humanized VelociT mouse | not stated) (UniProt P07766). In words: SPR. Conditions: peptide-MHC.
Assay [2] addresses PN45428 TCR-CD3, strep-tagged, detergent-solubilized (SPR reagent) (humanized VelociT mouse | not stated) (UniProt P07766). In words: SPR. Conditions: peptide-MHC.

pKd: −log10 of the molar value.

Broadly, the pKd is the Kd on a negative log10 scale, so that one unit is a factor of ten. The substance “single-chain disulfide-stabilized MAGEA4 (230-239) pMHC (from UniProt P61769 21-119)” gave a pKd in assay [1] of 5.21.

Turning to “single-chain disulfide-stabilized MAGEA8 (232-241) pMHC (from UniProt P61769 21-119)”, the negative logarithm of the Kd (pKd) in assay [1] was 3.38; in assay [2], 3.59.

Source of the values: publication PMC10132440.
